The source of these data is patent US20200148733A1 (Pieris, published 2020).

First the molecules themselves.
B7: human IL-23 (ligand)
chain 1: RAVPGGSSPAWTQCQQLSQKLCTLAWSAHPLVGHMDLREEGDEETTNDVPHIQCGDGCDPQGLRDNSQFCLQRIHQGLIFYEKLLGSDIFTGEPSLLPDSPVGQLHASLLGLSQLLQPEGHHWETQQIPSLSPSQPWQRLLLRFKILRSLQAFVAVAARVFAHGAATLSP
chain 2: IWELKKDVYVVELDWYPDAPGEMVVLTCDTPEEDGITWTLDQSSEVLGSGKTLTIQVKEFGDAGQYTCHKGGEVLSHSLLLLHKKEDGIWSTDILKDQKEPKNKTFLRCEAKNYSGRFTCWWLTTISTDLTFSVKSSRGSSDPQGVTCGAATLSAERVRGDNKEYEYSVECQEDSACPAAEESLPIEVMVDAVHKLKYENYTSSFFIRDIIKPDPPKNLQLKPLKNSRQVEVSWEYPDTWSTPHSYFSLTFCVQVQGKSKREKKDRVFTDKTSATVICRKNASISVRAQDRYYSSSWSEWASVPCS
notes: Heterodimer of p19 and p40; in the proliferation assays CAT # HZ-1254, HumanZyme; also called hIL-23; hIL23

Several values for one entry are separate records, joined by “and”; a condition that tells them apart may be missing. Equal entries are not always repeated.

Assay [1] has as its target B7. As to the kind of experiment: cell-based or functional assay.
Assay [2] addresses B7. The assay can be described thus: cell-based or functional assay. The source holds these as a separate data set.
Assay [3] addresses B7. The assay can be described thus: competition ECL assay: biotinylated hIL-23 pre-incubated with varied binder, free hIL-23 captured on coated soluble hIL-23R (competitor); Example 28.
In assay [4] the target is B7. The assay can be described thus: competition ELISA (ECL): 0.2 nM biotinylated hIL-23 pre-incubated with varied mutein, free hIL-23 captured on coated soluble hIL-23R (competitor). (In an ELISA, binding on a coated surface is turned into a signal by an enzyme label.)
The target in assay [5] is T1, lipocalin mutein SEQ ID NO: 5.
T1 construct: Human tear lipocalin (Tlc) mutein specific for IL-17A; also called Tlc mutein
The assay can be described thus: solution competition ELISA: 0.5 nM SEQ ID NO: 5 pre-incubated with varied ligand, free mutein captured on immobilised biotinylated hIL-17A (competitor). Here is the method:
(§1) In the following detailed experimental protocol, incubation and washing steps were performed as described above in the competition ELISA protocol. A 384-well plate suitable for fluorescence measurements (Greiner FLUOTRAC™ 600, black flat bottom, high-binding) was coated with 20 μl of Neutravidin at a concentration of 5 μg/ml in PBS over night at 4° C. After washing, the Neutravidin-coated wells were blocked with 100 μl blocking buffer (PBS-T/BSA) for 1h at room temperature.

The target of assay [6] is B7. As to the kind of experiment: competition ELISA (ECL): 0.05 nM biotinylated hIL-23 pre-incubated with varied binder, free hIL-23 captured on coated soluble hIL-23R (competitor); single measurement. Here is the method: (§2) The IgG antibody served as the positive control. […] The detailed experimental procedure was described as follows.
(§3) After washing, 60 μl MSD Read Buffer T (2×) was added to each well and the plate was read within 15 min.
(§4) The resulting Electrochemoluminescence (ECL) signal was measured with a suitable instrument such as the SECTOR Imager 2400 (Meso Scale Discovery).

Assay [7] has as its target B7. As to the kind of experiment: competition ELISA (ECL): 0.05 nM biotinylated hIL-23 pre-incubated with varied binder, free hIL-23 captured on coated soluble hIL-23R (competitor); average of two measurements. The method, then: as §2, §3, §4
A further assay deals with human IL-17A (human, UniProt Q16552 24-155). As to the kind of experiment: cell-based or functional assay.
For assay [8], the target named is T2, lipocalin mutein SEQ ID NO: 9.
T2 construct: Human NGAL (lipocalin 2) mutein specific for IL-23p19
T2 chain: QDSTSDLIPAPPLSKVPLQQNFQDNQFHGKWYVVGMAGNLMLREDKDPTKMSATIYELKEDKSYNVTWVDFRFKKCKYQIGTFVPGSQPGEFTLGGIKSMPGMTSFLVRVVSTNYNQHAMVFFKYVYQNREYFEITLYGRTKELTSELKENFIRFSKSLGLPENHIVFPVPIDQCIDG
As to the kind of experiment: solution competition ELISA: 10 nM SEQ ID NO: 9 pre-incubated with varied ligand, free mutein captured on immobilised biotinylated hIL-23 (competitor). The method, then:
(§5) In the following detailed experimental protocol, incubation and washing steps were performed as described above in the competition ELISA protocol. A 384-well plate suitable for fluorescence measurements (Greiner FLUOTRAC™ 600, black flat bottom, high-binding) was coated with 20 μl of Neutravidin at a concentration of 5 μg/ml in PBS over night at 4° C. After washing, the Neutravidin-coated wells were blocked with 100 μl PBS-T/BSA for 1h at room temperature.

For assay [9], the target named is T3, lipocalin mutein SEQ ID NO: 10.
T3 construct: Human NGAL (lipocalin 2) mutein specific for IL-23p19
T3 chain: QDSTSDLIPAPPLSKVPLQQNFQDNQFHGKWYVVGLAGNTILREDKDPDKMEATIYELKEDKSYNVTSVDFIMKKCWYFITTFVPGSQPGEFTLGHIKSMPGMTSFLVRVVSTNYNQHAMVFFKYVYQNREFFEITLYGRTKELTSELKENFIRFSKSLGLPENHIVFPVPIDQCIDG
As to the kind of experiment: solution competition ELISA: 1 nM SEQ ID NO: 10 pre-incubated with varied ligand, free mutein captured on immobilised biotinylated hIL-23 (competitor). The method, then: as §5

The target of assay [10] is T4, lipocalin mutein SEQ ID NO: 6.
T4 construct: Tear lipocalin mutein specific for IL-23p19
As to the kind of experiment: solution competition ELISA: 100 nM mutein (C-terminal Streptag) pre-incubated with varied ligand, free mutein captured on immobilised biotinylated hIL-23 (competitor). Here is the method:
as §1
(§6) Note that the lipocalein muteins contained a C-terminal Streptag fusion to allow binding and subsequent detection with the aid of an anti-Streptag antibody.
(§7) The residual supernatants were discarded and 20 μl of HRP-conjugated anti-Streptag IgG antibody (Genscript) was added at a predetermined optimal concentration in PBS-T/BSA and incubated for 1 h at RT. After washing, 20 μl fluorogenic HRP substrate (Quantablue, Pierce) was added to each well, and the reaction allowed to proceed for 30 minutes.

Assay [11] concerns the target T5, lipocalin mutein SEQ ID NO: 12.
T5 construct: Tear lipocalin mutein specific for IL-23p19
The assay is described as above. The method, then: as §1, §6, §7

Assay [12] addresses T6, lipocalin mutein SEQ ID NO: 13.
T6 construct: Tear lipocalin mutein specific for IL-23p19
The description is as above. The method, then: as §1, §6, §7

In assay [13] the target is B7. As to the kind of experiment: competition ELISA (ECL), 0.2 nM biotinylated hIL-23, coated soluble hIL-23R.

T4 sequence (chain, as listed by the source): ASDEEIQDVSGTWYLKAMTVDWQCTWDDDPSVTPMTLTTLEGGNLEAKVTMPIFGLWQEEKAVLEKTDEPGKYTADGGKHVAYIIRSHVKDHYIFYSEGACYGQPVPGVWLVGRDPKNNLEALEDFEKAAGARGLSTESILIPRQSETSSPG
T1 sequence (chain, as listed by the source): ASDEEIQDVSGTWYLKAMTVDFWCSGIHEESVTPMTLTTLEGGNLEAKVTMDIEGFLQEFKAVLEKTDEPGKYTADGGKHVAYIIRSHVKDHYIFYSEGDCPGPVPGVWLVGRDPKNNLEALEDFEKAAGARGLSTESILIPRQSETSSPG
T5 sequence (chain, as listed by the source): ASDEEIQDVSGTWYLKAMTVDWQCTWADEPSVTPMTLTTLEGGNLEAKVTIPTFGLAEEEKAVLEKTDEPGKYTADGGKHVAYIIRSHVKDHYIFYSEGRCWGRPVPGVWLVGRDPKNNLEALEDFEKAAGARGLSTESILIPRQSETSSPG
T6 sequence (chain, as listed by the source): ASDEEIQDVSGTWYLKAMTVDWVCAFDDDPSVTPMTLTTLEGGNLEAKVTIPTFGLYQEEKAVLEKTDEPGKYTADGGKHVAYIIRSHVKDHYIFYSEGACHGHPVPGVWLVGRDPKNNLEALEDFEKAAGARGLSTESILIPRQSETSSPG

B1: ABD fusion (SEQ ID NO: 42) (designed binder)
chain: QDSTSDLIPAPPLSKVPLQQNFQDNQFHGKWYVVGEAGNLLLREDKDPRKMTATIYELKEDKSYNVTRVEFGVKTYKYQIGTFVPGSQPGEFTLGGIKSMPGMTSFLVRVVSTNYNQHAMVFFKYVYQNREYFEITLYGRTKELTSELKENFIRFSKSLGLPENHIVFPVPIDQAIDGSAGAVDANSLAEAKVLANRELDKYGVSDYYKNLINNAKTVEGVKALIDEILAALP
With B1, in the assay with human IL-23 [1], the “IC50 (experiment of FIG. 19), hIL-23-induced proliferation of Ba/F3 cells expressing hIL-23R and hIL-12Rβ1” value stood at 0.22 nM; the “IC50 (three independent experiments), hIL-23-induced proliferation of Ba/F3 cells expressing hIL-23R and hIL-12Rβ1” value amounted to 0.41 nM.

B2: lipocalin mutein SEQ ID NO: 15 (designed binder)
chain: QDSTSDLIPAPPLSKVPLQQNFQDNQFHGKWYVVGEAGNLLLREDKDPRKMTATIYELKEDKSYNVTRVEFGVKTYKYQIGTFVPGSQPGEFTLGGIKSMPGMTSFLVRVVSTNYNQHAMVFFKYVYQNREYFEITLYGRTKELTSELKENFIRFSKSLGLPENHIVFPVPIDQAIDG
notes: IL-23p19-specific mutein
In the case of B2, the “IC50, hIL-23-induced proliferation of Ba/F3 cells expressing hIL-23R and hIL-12Rβ1” value with human IL-23 [1] came out at 3.8 nM. Further, in the assay with human IL-23 [2], the “EC50 [nM] AVERAGE, hIL-23-induced proliferation of Ba/F3 cells expressing hIL-23R and hIL-12Rβ1” value turned out to be 0.6 nM; the “EC50 [nM] Exp 1, hIL-23-induced proliferation of Ba/F3 cells expressing hIL-23R and hIL-12Rβ1” value is 0.3 nM; the “EC50 [nM] Exp 2, hIL-23-induced proliferation of Ba/F3 cells expressing hIL-23R and hIL-12Rβ1” value was determined as 0.4 nM; the “EC50 [nM] Exp 3, hIL-23-induced proliferation of Ba/F3 cells expressing hIL-23R and hIL-12Rβ1” value worked out at 1 nM. Further, the “EC50 [nM] Exp 4, hIL-23-induced proliferation of Ba/F3 cells expressing hIL-23R and hIL-12Rβ1” value with human IL-23 [2] was 0.7 nM. The IC50 with human IL-23 [3] was 0.27 nM. Further, the IC50 with human IL-23 [4] was found to be 0.3 nM.

B3: cynomolgus monkey IL-17A (ligand)
chain: GIAIPRNSGCPNSEDKNFPRTVMVNLNIHNRNTSTNPKRSSDYYNRSTSPWNLHRNEDPERYPSVIWEAKCRHLGCVKADGNVDYHMNSVPIQQEILVLRREPRHCPNSFRLEKILVSVGCTCVTPIVHHVA
notes: also called cIL-17A; cIL-17-A
With B3, the IC50 in assay [5] was 0.3 nM.

B4: IgG antibody (comprising the amino acids shown in SEQ ID NOs: 51 and 52) (antibody, V domains shown)
VH: QVQLVQSGAEVKKPGASVKVSCKASGYIFITYWMTWVRQAPGQGLEWMGQIFPASGSADYNEKFEGRVTMTTDTSTSTAYMELRSLRSDDTAVYYCARGGGGFAYWGQGTLVTVSS
VL: DIQMTQSPSSLSASVGDRVTITCRTSENIYSYLAWYQQKPGKAPKLLIYNAKTLAEGVPSRFSGSGSGTDFTLTISSLQPEDFATYYCQHHYGIPFTFGQGTKVEIKR
notes: also called positive control IgG
As to B4, the IC50 is 0.22 nM and 0.29 nM in the assay with human IL-23 [6]; 0.26 nM with human IL-23 [7].

B5: benchmark antibody 2 (antibody, human IgG4, kappa, V domains shown)
VH: QVQLVQSGAEVKKPGSSVKVSCKASGYSFTDYHISWVRQAPGQGLEWMGVINPEYGTTDYNQRFKGRVTITADESTSTAYMELSSLRSEDTAVYYCARYDYFTGTGAYWGQGTLVTVSS
VL: DIVMTQTPLSLSVTPGQPASISCRSSQSLKHSRGNTFLHWYLQKPGQSPQLLIYKVSNRFIGVPDRFSGSGSGTDFTLKISRVEAEDVGVYYCSQSTHYPFTFGQGTKLEIKR
As to B5, the “IC50, hIL-17A-induced secretion of G-CSF in U87-MG cells” value with human IL-17A turned out to be 0.6 nM.

B6: mouse IL-23 (ligand)
chain 1: VPRSSSPDWAQCQQLSRNLCMLAWNAHAPAGHMNLLREEEDEETKNNVPRIQCEDGCDPQGLKDNSQFCLQRIRQGLAFYKHLLDSDIFKGEPALLPDSPMEQLHTSLLGLSQLLQPEDHPRETQQMPSLSSSQQWQRPLLRSKILRSLQAFLAIAARVFAHGAATLTEPLVPTA
chain 2: MWELEKDVYVVEVDWTPDAPGETVNLTCDTPEEDDITWTSDQRHGVIGSGKTLTITVKEFLDAGQYTCHKGGETLSHSHLLLHKKENGIWSTEILKNFKNKTFLKCEAPNYSGRFTCSWLVQRNMDLKFNIKSSSSSPDSRAVTCGMASLSAEKVTLDQRDYEKYSVSCQEDVTCPTAEETLPIELALEARQQNKYENYSTSFFIRDIIKPDPPKNLQMKPLKNSQVEVSWEYPDSWSTPHSYFSLKFFVRIQRKKEKMKETEEGCNQKGAFLVEKTSTEVQCKGGNVCVQAQDRYYNSSCSKWACVPCRVRS
notes: also called mIL-23
As for B6, the IC50 stood at 88 nM in assay [8] and 361 nM in assay [9].

Regarding B7, the IC50 in assay [8] is 55 nM; in assay [9] it was 1.4 nM; in assay [10] it was 89 nM; in [11], 66 nM; in [12] it was 24 nM.

B8: negative control SEQ ID NO: 11 (designed binder)
chain: QDSTSDLIPAPPLSKVPLQQNFQDNEFHGKWYVVGLAGNAILREDKDPQKMYATIYELKEDKSYNVTSVLFRKKKCDYWIRTFVPGSQPGEFTLGNIKSYPGLTSYLVRVVSTNYNQHAMVFFKKVSQNREYFKITLYGRTKELTSELKENFIRFSKSLGLPENHIVFPVPIDQCIDG
In the case of B8, the binding result in the assay with human IL-23 [13] is reported as “no binding (tested: starting concentration 500 nM)”.

By IC50 is commonly meant the concentration that gives 50% inhibition. Higher therefore signals lower potency.
